From IntAct's records for PubMed 31515488 come the findings set out here.

B1: E3 ubiquitin-protein ligase ARIH2 (Homo sapiens), O95376 (parent)
chain: MSVDMNSQGSDSNEEDYDPNCEEEEEEEEDDPGDIEDYYVGVASDVEQQGADAFDPEEYQFTCLTYKESEGALNEHMTSLASVLKVSHSVAKLILVNFHWQVSEILDRYKSNSAQLLVEARVQPNPSKHVPTSHPPHHCAVCMQFVRKENLLSLACQHQFCRSCWEQHCSVLVKDGVGVGVSCMAQDCPLRTPEDFVFPLLPNEELREKYRRYLFRDYVESHYQLQLCPGADCPMVIRVQEPRARRVQCNRCNEVFCFKCRQMYHAPTDCATIRKWLTKCADDSETANYISAHTKDCPKCNICIEKNGGCNHMQCSKCKHDFCWMCLGDWKTHGSEYYECSRYKENPDIVNQSQQAQAREALKKYLFYFERWENHNKSLQLEAQTYQRIHEKIQERVMNNLGTWIDWQYLQNAAKLLAKCRYTLQYTYPYAYYMESGPRKKLFEYQQAQLEAEIENLSWKVERADSYDRGDLENQMHIAEQRRRTLLKDFHDT
B2: Tuftelin-interacting protein 11 (Homo sapiens), Q9UBB9 (parent)
chain: MSLSHLYRDGEGRIDDDDDERENFEITDWDLQNEFNPNRQRHWQTKEEATYGVWAERDSDDERPSFGGKRARDYSAPVNFISAGLKKGAAEEAELEDSDDEEKPVKQDDFPKDFGPRKLKTGGNFKPSQKGFAGGTKSFMDFGSWERHTKGIGQKLLQKMGYVPGRGLGKNAQGIINPIEAKQRKGKGAVGAYGSERTTQSMQDFPVVDSEEEAEEEFQKELSQWRKDPSGSKKKPKYSYKTVEELKAKGRISKKLTAPQKELSQVKVIDMTGREQKVYYSYSQISHKHNVPDDGLPLQSQQLPQSGKEAKAPGFALPELEHNLQLLIDLTEQEIIQNDRQLQYERDMVVNLFHELEKMTEVLDHEERVISNLSKVLEMVEECERRMQPDCSNPLTLDECARIFETLQDKYYEEYRMSDRVDLAVAIVYPLMKEYFKEWDPLKDCTYGTEIISKWKSLLENDQLLSHGGQDLSADAFHRLIWEVWMPFVRNIVTQWQPRNCDPMVDFLDSWVHIIPVWILDNILDQLIFPKLQKEVENWNPLTDTVPIHSWIHPWLPLMQARLEPLYSPIRSKLSSALQKWHPSDSSAKLILQPWKDVFTPGSWEAFMVKNIVPKLGMCLGELVINPHQQHMDAFYWVIDWEGMISVSSLVGLLEKHFFPKWLQVLCSWLSNSPNYEEITKWYLGWKSMFSDQVLAHPSVKDKFNEALDIMNRAVSSNVGAYMQPGARENIAYLTHTERRKDFQYEAMQERREAENMAQRGIGVAASSVPMNFKDLIETKAEEHNIVFMPVIGKRHEGKQLYTFGRIVIYIDRGVVFVQGEKTWVPTSLQSLIDMAK
partner: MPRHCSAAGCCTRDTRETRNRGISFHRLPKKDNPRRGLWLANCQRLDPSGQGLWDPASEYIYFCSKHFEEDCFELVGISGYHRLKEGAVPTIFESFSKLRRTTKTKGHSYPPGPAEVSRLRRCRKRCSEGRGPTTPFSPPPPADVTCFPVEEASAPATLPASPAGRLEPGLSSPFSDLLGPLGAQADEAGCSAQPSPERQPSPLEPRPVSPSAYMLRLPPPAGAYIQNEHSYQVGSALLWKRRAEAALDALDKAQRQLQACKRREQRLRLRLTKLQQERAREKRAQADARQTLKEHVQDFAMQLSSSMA
B3: Pachytene checkpoint protein 2 homolog (Homo sapiens), Q15645 (parent)
chain: MDEAVGDLKQALPCVAESPTVHVEVHQRGSSTAKKEDINLSVRKLLNRHNIVFGDYTWTEFDEPFLTRNVQSVSIIDTELKVKDSQPIDLSACTVALHIFQLNEDGPSSENLEEETENIIAANHWVLPAAEFHGLWDSLVYDVEVKSHLLDYVMTTLLFSDKNVNSNLITWNRVVLLHGPPGTGKTSLCKALAQKLTIRLSSRYRYGQLIEINSHSLFSKWFSESGKLVTKMFQKIQDLIDDKDALVFVLIDEVESLTAARNACRAGTEPSDAIRVVNAVLTQIDQIKRHSNVVILTTSNITEKIDVAFVDRADIKQYIGPPSAAAIFKIYLSCLEELMKCQIIYPRQQLLTLRELEMIGFIENNVSKLSLLLNDISRKSEGLSGRVLRKLPFLAHALYVQAPTVTIEGFLQALSLAVDKQFEERKKLAAYI
partner: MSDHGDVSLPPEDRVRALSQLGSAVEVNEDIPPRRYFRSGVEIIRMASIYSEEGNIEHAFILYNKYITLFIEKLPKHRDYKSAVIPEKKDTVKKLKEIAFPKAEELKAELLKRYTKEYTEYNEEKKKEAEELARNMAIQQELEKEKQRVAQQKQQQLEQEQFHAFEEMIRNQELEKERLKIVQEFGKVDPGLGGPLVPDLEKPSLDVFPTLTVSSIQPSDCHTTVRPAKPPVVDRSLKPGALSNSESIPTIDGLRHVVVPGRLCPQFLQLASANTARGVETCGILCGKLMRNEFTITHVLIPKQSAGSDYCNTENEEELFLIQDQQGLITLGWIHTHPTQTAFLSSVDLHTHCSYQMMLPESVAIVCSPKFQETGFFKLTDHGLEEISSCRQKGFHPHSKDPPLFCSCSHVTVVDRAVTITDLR
B4: TBC1 domain family member 7 (Homo sapiens), Q9P0N9 (parent)
chain: MTEDSQRNFRSVYYEKVGFRGVEEKKSLEILLKDDRLDTEKLCTFSQRFPLPSMYRALVWKVLLGILPPHHESHAKVMMYRKEQYLDVLHALKVVRFVSDATPQAEVYLRMYQLESGKLPRSPSFPLEPDDEVFLAIAKAMEEMVEDSVDCYWITRRFVNQLNTKYRDSLPQLPKAFEQYLNLEDGRLLTHLRMCSAAPKLPYDLWFKRCFAGCLPESSLQRVWDKVVSGSCKILVFVAVEILLTFKIKVMALNSAEKITKFLENIPQDSSDAIVSKAIDLWHKHCGTPVHSS
partner: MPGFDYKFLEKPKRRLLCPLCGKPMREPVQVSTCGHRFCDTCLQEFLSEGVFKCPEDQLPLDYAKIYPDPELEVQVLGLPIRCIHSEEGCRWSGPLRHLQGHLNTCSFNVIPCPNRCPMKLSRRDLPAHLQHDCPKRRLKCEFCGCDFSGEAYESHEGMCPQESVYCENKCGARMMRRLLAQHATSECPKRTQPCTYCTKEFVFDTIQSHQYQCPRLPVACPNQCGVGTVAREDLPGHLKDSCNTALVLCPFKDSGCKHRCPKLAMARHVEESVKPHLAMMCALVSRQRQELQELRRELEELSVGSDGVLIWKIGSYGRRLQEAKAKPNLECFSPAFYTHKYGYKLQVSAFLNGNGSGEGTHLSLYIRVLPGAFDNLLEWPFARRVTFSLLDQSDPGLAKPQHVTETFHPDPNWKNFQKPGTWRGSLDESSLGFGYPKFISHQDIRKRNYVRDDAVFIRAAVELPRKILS
B5: Transmembrane protein 187 (Homo sapiens), Q14656 (parent)
chain: MNPEWGQAFVHVAVAGGLCAVAVFTGIFDSVSVQVGYEHYAEAPVAGLPAFLAMPFNSLVNMAYTLLGLSWLHRGGAMGLGPRYLKDVFAAMALLYGPVQWLRLWTQWRRAAVLDQWLTLPIFAWPVAWCLYLDRGWRPWLFLSLECVSLASYGLALLHPQGFEVALGAHVVAAVGQALRTHRHYGSTTSATYLALGVLSCLGFVVLKLCDHQLARWRLFQCLTGHFWSKVCDVLQFHFAFLFLTHFNTHPRFHPSGGKTR
partner: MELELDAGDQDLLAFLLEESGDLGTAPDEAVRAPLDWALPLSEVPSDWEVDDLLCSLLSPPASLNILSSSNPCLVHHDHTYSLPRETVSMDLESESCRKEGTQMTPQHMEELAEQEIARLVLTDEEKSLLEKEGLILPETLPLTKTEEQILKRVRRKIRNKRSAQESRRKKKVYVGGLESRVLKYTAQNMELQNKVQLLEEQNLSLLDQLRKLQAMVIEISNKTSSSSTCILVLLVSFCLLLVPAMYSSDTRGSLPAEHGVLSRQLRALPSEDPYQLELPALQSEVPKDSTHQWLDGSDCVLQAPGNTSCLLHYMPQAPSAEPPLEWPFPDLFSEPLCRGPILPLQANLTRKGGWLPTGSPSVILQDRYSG
B6: Eukaryotic translation initiation factor 4E-binding protein 2 (Homo sapiens), Q13542 (parent)
chain: MSSSAGSGHQPSQSRAIPTRTVAISDAAQLPHDYCTTPGGTLFSTTPGGTRIIYDRKFLLDRRNSPMAQTPPCHLPNIPGVTSPGTLIEDSKVEVNNLNNLNNHDRKHAVGDDAQFEMDI
B7: Intraflagellar transport protein 27 homolog (Homo sapiens), Q9BW83 (parent)
chain: MVKLAAKCILAGDPAVGKTALAQIFRSDGAHFQKSYTLTTGMDLVVKTVPVPDTGDSVELFIFDSAGKELFSEMLDKLWESPNVLCLVYDVTNEESFNNCSKWLEKARSQAPGISLPGVLVGNKTDLAGRRAVDSAEARAWALGQGLECFETSVKEMENFEAPFHCLAKQFHQLYREKVEVFRALA
partner: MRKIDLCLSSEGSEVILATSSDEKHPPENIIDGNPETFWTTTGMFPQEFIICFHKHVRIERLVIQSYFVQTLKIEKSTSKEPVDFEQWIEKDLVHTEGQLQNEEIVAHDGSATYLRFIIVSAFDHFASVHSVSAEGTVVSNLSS
B8: DCC-interacting protein 13-alpha (Homo sapiens), Q9UKG1 (parent)
chain: MPGIDKLPIEETLEDSPQTRSLLGVFEEDATAISNYMNQLYQAMHRIYDAQNELSAATHLTSKLLKEYEKQRFPLGGDDEVMSSTLQQFSKVIDELSSCHAVLSTQLADAMMFPITQFKERDLKEILTLKEVFQIASNDHDAAINRYSRLSKKRENDKVKYEVTEDVYTSRKKQHQTMMHYFCALNTLQYKKKIALLEPLLGYMQAQISFFKMGSENLNEQLEEFLANIGTSVQNVRREMDSDIETMQQTIEDLEVASDPLYVPDPDPTKFPVNRNLTRKAGYLNARNKTGLVSSTWDRQFYFTQGGNLMSQARGDVAGGLAMDIDNCSVMAVDCEDRRYCFQITSFDGKKSSILQAESKKDHEEWICTINNISKQIYLSENPEETAARVNQSALEAVTPSPSFQQRHESLRPAAGQSRPPTARTSSSGSLGSESTNLAALSLDSLVAPDTPIQFDIISPVCEDQPGQAKAFGQGGRRTNPFGESGGSTKSETEDSILHQLFIVRFLGSMEVKSDDHPDVVYETMRQILAARAIHNIFRMTESHLLVTCDCLKLIDPQTQVTRLTFPLPCVVLYATHQENKRLFGFVLRTSSGRSESNLSSVCYIFESNNEGEKICDSVGLAKQIALHAELDRRASEKQKEIERVKEKQQKELNKQKQIEKDLEEQSRLIAASSRPNQASSEGQFVVLSSSQSEESDLGEGGKKRESEA

The variants in the first test derive from B1. Conditions: with ub2l6_human UBE2L6, O14933.
Chain of ub2l6_human UBE2L6, O14933 (O14933 whole entry): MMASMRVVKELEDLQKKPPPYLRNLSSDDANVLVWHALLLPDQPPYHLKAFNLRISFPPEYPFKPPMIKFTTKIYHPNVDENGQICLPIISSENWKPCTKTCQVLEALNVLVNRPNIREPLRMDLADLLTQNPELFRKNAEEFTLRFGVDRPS
On to E29D, for which the “effect of a mutation on the interaction” value is recorded as “with no effect”.

In the next test the parent is B1. Conditions: with bub1_human BUB1, O43683.
Chain of bub1_human BUB1, O43683 (O43683 whole entry, looked up): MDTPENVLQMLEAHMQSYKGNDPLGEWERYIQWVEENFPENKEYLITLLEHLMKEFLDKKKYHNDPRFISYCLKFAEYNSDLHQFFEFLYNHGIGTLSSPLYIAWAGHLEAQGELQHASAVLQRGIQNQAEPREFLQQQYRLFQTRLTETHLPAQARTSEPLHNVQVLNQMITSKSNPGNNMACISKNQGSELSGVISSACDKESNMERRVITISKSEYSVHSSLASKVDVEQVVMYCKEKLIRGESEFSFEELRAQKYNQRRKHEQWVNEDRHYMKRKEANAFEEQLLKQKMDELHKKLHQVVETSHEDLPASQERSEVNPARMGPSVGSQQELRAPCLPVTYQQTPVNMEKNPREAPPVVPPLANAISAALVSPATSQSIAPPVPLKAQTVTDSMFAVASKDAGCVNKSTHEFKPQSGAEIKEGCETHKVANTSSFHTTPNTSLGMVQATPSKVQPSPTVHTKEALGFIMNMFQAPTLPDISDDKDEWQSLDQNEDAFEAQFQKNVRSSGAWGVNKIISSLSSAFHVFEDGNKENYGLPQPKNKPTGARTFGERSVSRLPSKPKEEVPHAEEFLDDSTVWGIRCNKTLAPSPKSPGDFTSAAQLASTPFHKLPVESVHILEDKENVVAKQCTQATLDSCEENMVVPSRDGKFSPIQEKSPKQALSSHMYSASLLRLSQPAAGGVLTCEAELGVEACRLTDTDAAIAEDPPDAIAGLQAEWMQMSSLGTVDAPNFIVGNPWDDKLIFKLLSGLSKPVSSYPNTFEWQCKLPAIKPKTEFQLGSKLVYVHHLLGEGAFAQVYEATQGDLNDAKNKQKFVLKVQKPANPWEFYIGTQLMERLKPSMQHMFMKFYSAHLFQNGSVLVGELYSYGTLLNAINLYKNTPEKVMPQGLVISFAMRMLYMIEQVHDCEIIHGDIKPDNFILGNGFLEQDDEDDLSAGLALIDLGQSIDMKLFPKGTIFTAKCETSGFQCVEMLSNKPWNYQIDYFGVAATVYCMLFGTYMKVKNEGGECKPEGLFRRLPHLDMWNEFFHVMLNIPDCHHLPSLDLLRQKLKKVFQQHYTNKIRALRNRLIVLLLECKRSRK
With E29D, the “effect of a mutation on the interaction” value was “with no effect”.

Another test covers variants of B2. Conditions: with thap7_human THAP7, Q9BT49.
Take R8Q: the “effect of a mutation on the interaction” value was “with no effect”.
The same measure, in the same setting: for S688L the value was “with no effect”.

The variants in a further test derive from B3. As to conditions: with stabp_human STAMBP.
In the case of G409E, the “effect of a mutation on the interaction” value is “with no effect”.

In another test the parent is B4. As to conditions: with traf4_human TRAF4, Q9BUZ4.
In the case of L67W, the “effect of a mutation on the interaction” value is “with no effect”.

Variants of B5 are the subject of a further test. As to conditions: with creb3_human CREB3, O43889.
As for R138Q, the “effect of a mutation on the interaction” value is listed as “with no effect”.

In another test the parent is B6. Conditions: with if4e_human EIF4E.
On to G6D, for which the “effect of a mutation on the interaction” value is “with no effect”.

Variants of B7 are the subject of the next test. As to conditions: with ift25_human IFT25, Q9Y547.
As for A142V, the “effect of a mutation on the interaction” value was “disrupting interaction strength”.

The variants in a further test derive from B8. As to conditions: with traf2_human TRAF2, Q12933.
Chain of traf2_human TRAF2, Q12933 (Q12933 whole entry): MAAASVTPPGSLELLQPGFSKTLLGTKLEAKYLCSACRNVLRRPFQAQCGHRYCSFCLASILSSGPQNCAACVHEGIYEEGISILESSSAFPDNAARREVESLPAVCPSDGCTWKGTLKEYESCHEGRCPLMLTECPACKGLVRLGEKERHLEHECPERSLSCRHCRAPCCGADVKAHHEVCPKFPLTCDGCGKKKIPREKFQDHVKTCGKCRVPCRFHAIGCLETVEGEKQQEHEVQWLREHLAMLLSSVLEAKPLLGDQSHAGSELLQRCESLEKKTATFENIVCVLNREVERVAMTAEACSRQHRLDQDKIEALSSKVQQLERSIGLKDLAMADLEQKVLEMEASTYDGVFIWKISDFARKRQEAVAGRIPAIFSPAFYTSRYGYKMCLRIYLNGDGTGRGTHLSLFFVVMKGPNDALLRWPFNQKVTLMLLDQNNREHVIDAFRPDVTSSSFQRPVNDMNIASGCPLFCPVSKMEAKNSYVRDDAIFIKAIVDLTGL
As for E643Q, the “effect of a mutation on the interaction” value is “with no effect”.

The variants in another test derive from B8. Conditions: with maga9_human MAGEA9, P43362.
Chain of maga9_human MAGEA9, P43362 (P43362 whole entry): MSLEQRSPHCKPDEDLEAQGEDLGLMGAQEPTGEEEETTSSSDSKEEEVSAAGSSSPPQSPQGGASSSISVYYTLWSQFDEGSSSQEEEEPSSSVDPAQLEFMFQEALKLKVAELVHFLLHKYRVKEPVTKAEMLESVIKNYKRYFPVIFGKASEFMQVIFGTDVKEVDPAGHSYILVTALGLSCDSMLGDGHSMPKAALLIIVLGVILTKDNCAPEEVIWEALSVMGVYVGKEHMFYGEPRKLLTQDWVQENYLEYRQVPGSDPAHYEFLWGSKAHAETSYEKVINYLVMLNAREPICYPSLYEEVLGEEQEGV
As to E643Q, the “effect of a mutation on the interaction” value is “with no effect”.
